Results as given in the supplement of paper PMC10567573.

B1: UBE2R2 (parent)
chain: DPQSGELPSERWNPTQNVRTILLS

Variants of: B1
Experiment: protein stability index of a GFP-peptide fusion (GPS, HEK-293T) (PSI 1-6); higher = more stable
Conditions: c terminus: a fixed tail appended
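Note: lentivirally expressed fusions sorted by FACS into six bins by GFP to DsRed ratio, PSI derived from sequencing read proportions per bin multiplied by bin number.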

Protein stability index, by site and new letter:
W12: N 4.48; A 4.61; V 4.2; Y 4.07; E 4.71; G 4.33; T 4.72; Q 4.44; C 3.94; M 4.1; D 4.81; K 4.54; R 4.31; F 3.92; P 4.4; L 3.62; I 4.35; H 4.08; S 4.67
E6: W 2.89; H 3.25; Y 2.95; K 2.79; D 3.44; G 3.3; S 3.1; P 2.8; T 3.37; A 3.13; C 3.02; L 2.61; V 3.17; F 2.3; I 3.24; N 3.48; M 2.88; Q 3.49
G5: Y 3.17; Q 3.77; T 3.93; P 2.66; I 3.24; A 3.21; D 3.98; K 3.49; E 4.5; S 3.61; C 2.8; L 3.53; M 3.41; W 2.6; V 3.27; F 3.18; H 3.83; R 3.45; N 3.96
P8: S 3.48; Q 3.57; T 3.06; I 2.69; A 4.13; C 4.2; K 3.58; N 3.53; F 3.27; L 3.55; R 3.37; Y 3.34; E 3.82; V 3.33; H 3.59; M 3.66; D 3.68; W 3.05
E10: N 3.35; P 3.51; C 2.81; W 2.39; L 2.98; F 2.45; I 2.55; H 3.14; S 2.95; M 3.09; K 3.05; Q 3.5; A 2.98; T 3.48; D 3.43; Y 2.71; V 2.6; G 2.84; R 3.17
L7: C 3.29; R 3.81; T 4.12; E 4.02; N 4.11; S 3.79; Y 3.06; P 4.68; W 2.62; Q 4.32; G 3.69; F 3.2; V 3.19; H 3.67; D 4.51; I 3.35; A 4.25; M 3.71; K 3.81
S9: M 3.87; L 3.76; Y 2.92; E 3.95; T 3.98; I 4.09; N 3.8; C 3.9; K 3.94; W 2.58; Q 3.35; G 3.27; D 3.86; F 2.4; H 3.47; A 4.37; R 3.43; P 3.43; V 3.81
S4: A 3.15; N 2.99; I 3.4; M 2.95; T 3.16; D 3.79; V 3.41; H 3.45; Q 3.68; R 3.87; L 3.6; K 3.75; C 3.61; Y 2.39; P 3.02; F 3.49
Q3: Y 2.42
R11: A 3.77; W 2.79; H 3.3; G 4.23; K 3.5; F 2.82; C 3.76; E 4.44; T 3.98; Q 4.04; N 3.48; Y 2.82; L 3.24; S 3.56; V 3.62; M 3.22; P 3.71; I 2.77; D 3.88
